Columns and labels:
Experiment in all cases: SPR
[1] = molecular target: cynomolgus monkey neonatal Fc receptor (cyno FcRn), soluble heterodimer (UniProt Q8SPV9+Q8SPW0); details: pH 7.4; not stated (pH 7.4)
[2] = molecular target: human neonatal Fc receptor (hFcRn), soluble heterodimer (UniProt P55899+P61769); details: pH 7.4; not stated (pH 7.4)
[3] = molecular target: biotinylated cynomolgus FcRn, p51 subunit with β2-m (cynomolgus monkey) (UniProt Q8SPV9)
FcγRIIIa = FcγRIIIa (UniProt P08637)
[4] = molecular target: biotinylated human neonatal Fc receptor (hFcRn), p51 subunit with β2-m (human) (UniProt P55899)

Chain of UniProt P08637 (P08637 17-208): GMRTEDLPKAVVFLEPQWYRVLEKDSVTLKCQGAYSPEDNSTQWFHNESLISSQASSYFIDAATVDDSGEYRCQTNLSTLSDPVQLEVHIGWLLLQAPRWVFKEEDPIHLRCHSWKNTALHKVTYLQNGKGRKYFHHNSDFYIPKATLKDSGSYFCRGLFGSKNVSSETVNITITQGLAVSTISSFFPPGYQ
Chain of UniProt Q8SPV9 (Q8SPV9 24-297, chain 1 of 2): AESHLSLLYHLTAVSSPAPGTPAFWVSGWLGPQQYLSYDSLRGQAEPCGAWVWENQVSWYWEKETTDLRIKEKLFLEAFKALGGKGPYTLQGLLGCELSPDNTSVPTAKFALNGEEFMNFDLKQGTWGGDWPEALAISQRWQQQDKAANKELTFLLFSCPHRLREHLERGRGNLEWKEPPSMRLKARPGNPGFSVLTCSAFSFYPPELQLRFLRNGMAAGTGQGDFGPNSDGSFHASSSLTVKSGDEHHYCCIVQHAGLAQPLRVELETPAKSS
Chain of UniProt Q8SPV9 (Q8SPW0 21-119, chain 2 of 2, further chain): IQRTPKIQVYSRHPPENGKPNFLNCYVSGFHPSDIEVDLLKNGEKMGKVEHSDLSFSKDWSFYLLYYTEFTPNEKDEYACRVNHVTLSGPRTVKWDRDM

| Steady State RU [1] | Steady State RU [2] | Kd [3] | Steady State RU, at pH 7.4 [3] | Kd (FcγRIIIa) | Kd [4] | Steady State RU, at pH 7.4 [4] | Substance |
| --- | --- | --- | --- | --- | --- | --- | --- |
| 55.7 RU | 68.4 RU | – | – | – | – | – | adalimumab LS M428L;N434S |
| 2.5 RU | 2.7 RU | – | – | – | – | – | adalimumab WT Fc (labelled mAb2 in Table 2, mAb3 in Tables 1 and 3) |
| – | – | 0.048 µM | 55.7 RU | 0.196 µM | 0.5 µM | 68.4 RU | adalimumab with the LS Fc-backbone mutation (M428L/N434S) (antibody) |
| – | – | 1.1 µM | – | 0.194 µM | 0.645 µM | – | adalimumab, wild-type Fc (antibody) |
| 10.9 RU | 14 RU | – | – | – | – | – | bevacizumab (mAb1) DQ T256D;T307Q |
| 14.8 RU | 18 RU | – | – | – | – | – | bevacizumab (mAb1) DW T256D;T307W |
| 38.3 RU | 44 RU | – | – | – | – | – | bevacizumab (mAb1) LS M428L;N434S |
| 1.3 RU | 1.3 RU | – | – | – | – | – | bevacizumab (mAb1) WT Fc |
| 22.2 RU | 27 RU | – | – | – | – | – | bevacizumab (mAb1) YD M252Y;T256D |
| – | – | 0.11 µM | 10.9 RU | 0.361 µM | 0.089 µM | 14 RU | mAb1 (bevacizumab) with the DQ Fc-backbone mutation (T256D/T307Q) (antibody) |
| – | – | 0.099 µM | 14.8 RU | 0.329 µM | 0.126 µM | 18 RU | mAb1 (bevacizumab) with the DW Fc-backbone mutation (T256D/T307W) (antibody) |
| – | – | 0.21 µM | 38.3 RU | 0.307 µM | – | 44 RU | mAb1 (bevacizumab) with the LS Fc-backbone mutation (M428L/N434S) (antibody) |
| – | – | 0.12 µM | 22.2 RU | 0.645 µM | 0.086 µM | 27 RU | mAb1 (bevacizumab) with the YD Fc-backbone mutation (M252Y/T256D) (antibody) |
| – | – | 1.44 µM | – | 0.377 µM | 0.5 µM | – | mAb1 (bevacizumab), wild-type Fc (antibody) |

Source: paper PMC7587234
